Where no end group is shown, it is not given here.
Assays:
IRAK4 = target: T1, IRAK4 (Homo sapiens, UniProt Q9NWZ3); test: mRNA display affinity selection against IRAK4, NGS abundance; assay type: binding; design: acids 1-460; NP_057207.2) was purchased from Carna Biosciences; purchased Carna Biosciences (Kobe, Japan); settings: Top100 selection hits, NGS
T1 sequence (Q9NWZ3 1-460): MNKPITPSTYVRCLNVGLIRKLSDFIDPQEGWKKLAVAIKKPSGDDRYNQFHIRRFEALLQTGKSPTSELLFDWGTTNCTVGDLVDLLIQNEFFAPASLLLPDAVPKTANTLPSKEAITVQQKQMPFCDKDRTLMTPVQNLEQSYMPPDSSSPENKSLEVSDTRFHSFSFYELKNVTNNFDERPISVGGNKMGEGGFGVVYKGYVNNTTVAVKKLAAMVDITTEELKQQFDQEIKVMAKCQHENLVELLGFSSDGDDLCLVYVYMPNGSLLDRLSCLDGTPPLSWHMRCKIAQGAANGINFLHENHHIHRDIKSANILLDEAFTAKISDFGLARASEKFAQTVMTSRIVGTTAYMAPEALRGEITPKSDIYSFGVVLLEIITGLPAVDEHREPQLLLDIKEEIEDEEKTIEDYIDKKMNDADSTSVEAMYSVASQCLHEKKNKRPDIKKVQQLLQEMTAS

TLR10 = target: T2, TLR10 (Homo sapiens, UniProt Q9BXR5); test: mRNA display affinity selection against TLR10, NGS abundance; assay type: binding; design: Chimera protein (extracellular domain, amino acid 20-576;); Fc (chimera); purchased R&D system #6619-TR-050; settings: Top100 selection hits, NGS
T2 sequence (Q9BXR5 20-576): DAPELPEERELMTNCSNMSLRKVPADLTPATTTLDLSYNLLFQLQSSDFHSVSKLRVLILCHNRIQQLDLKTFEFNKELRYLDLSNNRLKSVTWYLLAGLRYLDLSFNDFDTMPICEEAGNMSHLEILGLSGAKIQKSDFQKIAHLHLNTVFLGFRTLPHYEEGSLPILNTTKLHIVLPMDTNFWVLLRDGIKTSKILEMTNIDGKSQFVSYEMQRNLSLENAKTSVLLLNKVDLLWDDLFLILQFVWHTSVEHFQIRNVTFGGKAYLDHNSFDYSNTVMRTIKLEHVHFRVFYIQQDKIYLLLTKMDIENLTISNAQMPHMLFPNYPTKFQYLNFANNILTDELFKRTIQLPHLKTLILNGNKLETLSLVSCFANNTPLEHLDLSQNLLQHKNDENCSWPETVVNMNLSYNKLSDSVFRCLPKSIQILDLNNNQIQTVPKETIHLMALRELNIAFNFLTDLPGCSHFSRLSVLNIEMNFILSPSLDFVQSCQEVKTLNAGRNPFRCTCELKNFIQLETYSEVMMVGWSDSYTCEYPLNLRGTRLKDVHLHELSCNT

Sequence | Library fraction (IRAK4; IRAK4 selection pulldown (+)) | Raw reads (IRAK4; IRAK4 selection pulldown (+)) | Library fraction (IRAK4; IRAK4 selection pulldown (-)) | Raw reads (IRAK4; IRAK4 selection pulldown (-)) | Library fraction (TLR10; TLR10 selection pulldown (+)) | Raw reads (TLR10; TLR10 selection pulldown (+)) | Library fraction (TLR10; TLR10 selection pulldown (-)) | Raw reads (TLR10; TLR10 selection pulldown (-))
AQRWRRRCYH | 0.0008 | 85 | 0.00051 | 68 | – | – | – | –
SQRYKRRNYK | 0.0009 | 92 | 0.00037 | 49 | – | – | – | –
SMLWKRRICI | 0.0002 | 17 | – | – | – | – | – | –
SRLWRRRIYH | 0.009 | 985 | 0.014 | 1900 | – | – | – | –
SIMWKRRVFK | 0.0001 | 9 | 8e-5 | 11 | – | – | – | –
RLCWKRRNWT | 0.0004 | 47 | 0.00044 | 59 | – | – | – | –
SLLWKRRVYT | 0.0002 | 17 | 0.0001 | 14 | – | – | – | –
RLFWKRRRYA | 0.0004 | 42 | 0.00016 | 21 | – | – | – | –
STRWKNRIYR | 0.004 | 433 | 0.003 | 390 | – | – | – | –
SMQRKTIHWKWT | – | – | 0.00109 | 145 | – | – | – | –
SMKRQFITWHWT | – | – | 0.376 | 50248 | – | – | – | –
SLRWKRRIWS | – | – | 9e-5 | 12 | – | – | – | –
AVIVWAKQGIKG | – | – | – | – | 0.0006 | 58 | – | –
AQMYPIQNKIAF | – | – | – | – | 0.00064 | 62 | 0.00063 | 75
TILFPLQRRLVV | – | – | – | – | – | – | 0.0018 | 215
TMMFPHQRKLAF | – | – | – | – | – | – | 0.009 | 1056
SVSFPLQRKLVF | – | – | – | – | 0.00065 | 63 | – | –
CNPYRGNIGW | – | – | – | – | 0.006 | 614 | 0.016 | 1871
SKIIIRGQGIRG | – | – | – | – | – | – | 0.00238 | 284
CESCCYVIDFEF | – | – | – | – | – | – | 0.00343 | 409
SITFQTLNKIAY | – | – | – | – | – | – | 0.006 | 714
AIRFSNVLAL | – | – | – | – | 0.00022 | 21 | – | –
SIVFHLTNKMAF | – | – | – | – | 0.004 | 391 | 0.004 | 462
AMKLSARYIAF | – | – | – | – | – | – | 0.00072 | 86
TLHFRRQNKIAY | – | – | – | – | 0.020 | 1927 | 0.011 | 1314
TMLFRLQSKLAI | – | – | – | – | – | – | 0.013 | 1571
AVRNKYGGNAAS | – | – | – | – | 0.054 | 5293 | 0.012 | 1475
CITFQLTRKVAF (not fully specified) | – | – | – | – | – | – | 0.00554 | 661

Second part, the sequence after the results:

Library fraction (IRAK4; IRAK4 selection pulldown (+)) | Raw reads (IRAK4; IRAK4 selection pulldown (+)) | Library fraction (IRAK4; IRAK4 selection pulldown (-)) | Raw reads (IRAK4; IRAK4 selection pulldown (-)) | Library fraction (TLR10; TLR10 selection pulldown (+)) | Raw reads (TLR10; TLR10 selection pulldown (+)) | Library fraction (TLR10; TLR10 selection pulldown (-)) | Raw reads (TLR10; TLR10 selection pulldown (-)) | Sequence
0.003 | 318 | 0.00139 | 186 | – | – | – | – | SVLWKKRVWQ
– | – | 9e-5 | 12 | – | – | – | – | SMRRQFITWHWT
0.0004 | 46 | 0.00019 | 26 | – | – | – | – | RVLWKKRNYA
– | – | 7e-5 | 10 | – | – | – | – | GMKRQFITWHWT
0.0002 | 26 | 7e-5 | 10 | – | – | – | – | TQFWKRRNYA
0.0046 | 492 | 0.007 | 903 | – | – | – | – | SVRWKRRDYR
0.006 | 624 | 0.00431 | 576 | – | – | – | – | TQRWRARNYK
0.0001 | 11 | 0.00021 | 28 | – | – | – | – | GPVIYNRRIYC
0.010 | 1112 | 0.011 | 1441 | – | – | – | – | SVLWKRRIAK
– | – | 0.00026 | 35 | – | – | – | – | TMRWKRRNWA
0.003 | 323 | 0.00136 | 181 | – | – | – | – | TMLWKRRIHA
0.0001 | 9 | – | – | – | – | – | – | STRWNNRIWR
0.0016 | 168 | 0.00036 | 48 | – | – | – | – | SMLWGRRIYR
0.0002 | 21 | 0.00014 | 19 | – | – | – | – | GPILYNRRLFV
0.0001 | 10 | – | – | – | – | – | – | SMLFKRRVYK
0.0003 | 37 | 0.00027 | 36 | – | – | – | – | SQLYKRRIYQ
– | – | – | – | – | – | 0.002 | 250 | IGRVWVQSS
– | – | – | – | 0.00022 | 21 | – | – | MNPYSGNIVV
– | – | – | – | – | – | 0.00054 | 64 | TIELTHAYLH

Library fraction (IRAK4; IRAK4 selection pulldown (+)) | Raw reads (IRAK4; IRAK4 selection pulldown (+)) | Library fraction (IRAK4; IRAK4 selection pulldown (-)) | Raw reads (IRAK4; IRAK4 selection pulldown (-)) | Library fraction (TLR10; TLR10 selection pulldown (+)) | Raw reads (TLR10; TLR10 selection pulldown (+)) | Library fraction (TLR10; TLR10 selection pulldown (-)) | Raw reads (TLR10; TLR10 selection pulldown (-)) | Sequence
– | – | – | – | 0.00074 | 72 | – | – | TMFFRRQNAMAL
– | – | – | – | 0.00122 | 119 | 0.00077 | 92 | SSPNRYGGNVNT
– | – | – | – | – | – | 0.00163 | 194 | SLELSRVNVVIH
– | – | – | – | 0.077 | 7526 | 0.042 | 4957 | ASINRYGGNAAS
– | – | – | – | – | – | 0.002 | 237 | TCFSHYLIM
– | – | – | – | 0.0012 | 117 | 0.00155 | 185 | IGLVRIKSS
– | – | – | – | 0.007 | 660 | 0.004 | 475 | IGNVCVVSS
– | – | – | – | 0.008 | 804 | 0.013 | 1556 | AINFELTNKIAF
– | – | – | – | – | – | 0.022 | 2623 | CVFFPHLNKIAL
– | – | – | – | 0.00163 | 159 | 0.00093 | 111 | AVEFRLQRAIAY
– | – | – | – | 0.00021 | 20 | – | – | SILFSIQNKLVL
– | – | – | – | 0.00021 | 20 | – | – | GDLRGNVCMWL
– | – | – | – | – | – | 0.0009 | 107 | GVGNRYGGHAGT
– | – | – | – | – | – | 0.00149 | 178 | SICFASQRLLAF
– | – | – | – | 0.023 | 2231 | 0.00739 | 882 | GTGLNRYGGINY
– | – | – | – | – | – | 0.00358 | 427 | RMMFHLLNQIAY
– | – | – | – | 0.004 | 408 | 0.002 | 248 | SMLVWKGQSIRG
– | – | – | – | 0.00528 | 515 | 0.003 | 351 | TMMFPRLGKVAY
